# B1: dengue virus (DENV) non-structural protein 1 (NS1), recombinant, refolded from inclusion bodies (natural protein)
# chain: DSGCVVSWKNKELKCGSGIFITDNVHTWTEQYKFQPESPSKLASAIQKAHEEGICGIRSVTRLENLMWKQITPELNHILSENEVKLTIMTGDIKGIMQAGKRSLQPQPTELKYSWKTWGKAKMLSTESHNQTFLIDGPETAECPNTNRAWNSLEVEDYGFGVFTTNIWLKLREKQDVFCDSKLMSAAIKDNRAVHADMGYWIESALNDTWKIEKASFIEVKSCHWPKSHTLWSNGVLESEMIIPKNFAGPVSQHNYRPGYHTQTAGPWHLGKLEMDFDFCEGTTVVVTEDCGNRGPSLRTTTASGKLITEWCCRSCTLPPLRYRGEDGCWYGMEIRPLKEKEENLVNSLVTA
# notes: also called DENV NS1
# Columns and labels:
# [1] = target: the molecule itself; test: SEC; Superdex 200 10/300, elution in 50 mM CAPS pH 11.0; supernatant of NS1-IBs subjected to 2.4 kbar/0.4 kbar at pH 11.0, before dialysis
# SEC = target: the molecule itself; test: SEC
protein,measurement,setting,value
B1,stoichiometry N,[1],2
same,stoichiometry N,SEC,3
